T1: cell surface CD22 on Ramos (CD22+) cells (human, UniProt P20273 20-847)
T1 construct: whole, on cells; also called CD22 on WSU-DLCL2, MHH-PREB-1 and Raji cells
T1 sequence (looked up): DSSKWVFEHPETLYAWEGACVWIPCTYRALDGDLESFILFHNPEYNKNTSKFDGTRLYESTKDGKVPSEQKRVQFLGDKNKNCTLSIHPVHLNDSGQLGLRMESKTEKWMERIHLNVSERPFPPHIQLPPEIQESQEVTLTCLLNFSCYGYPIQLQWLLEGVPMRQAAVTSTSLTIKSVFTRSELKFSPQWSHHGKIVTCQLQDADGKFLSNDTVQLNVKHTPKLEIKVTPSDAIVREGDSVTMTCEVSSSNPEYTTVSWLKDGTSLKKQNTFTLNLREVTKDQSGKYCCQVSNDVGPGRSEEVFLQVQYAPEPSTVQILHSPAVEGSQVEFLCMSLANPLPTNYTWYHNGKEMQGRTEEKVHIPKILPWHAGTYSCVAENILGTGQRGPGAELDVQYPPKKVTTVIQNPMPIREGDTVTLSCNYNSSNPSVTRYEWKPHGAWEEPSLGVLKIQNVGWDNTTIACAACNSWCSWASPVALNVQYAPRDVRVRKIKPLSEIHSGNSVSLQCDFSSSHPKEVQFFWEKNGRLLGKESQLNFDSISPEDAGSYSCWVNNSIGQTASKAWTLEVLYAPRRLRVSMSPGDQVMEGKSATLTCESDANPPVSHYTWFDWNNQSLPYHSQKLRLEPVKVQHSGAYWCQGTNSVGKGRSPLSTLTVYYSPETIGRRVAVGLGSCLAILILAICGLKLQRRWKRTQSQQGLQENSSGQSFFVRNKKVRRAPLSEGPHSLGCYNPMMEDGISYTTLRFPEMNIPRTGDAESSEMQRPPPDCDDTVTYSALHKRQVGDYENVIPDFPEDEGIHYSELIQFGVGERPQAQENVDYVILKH

T2: CD22 (Acro Biosystems, Cat #CD2-H52H8) (UniProt P20273 20-687)
T2 construct: soluble analyte, 50 nM in BLI; also called Acro Biosystems antigen
T2 sequence (looked up): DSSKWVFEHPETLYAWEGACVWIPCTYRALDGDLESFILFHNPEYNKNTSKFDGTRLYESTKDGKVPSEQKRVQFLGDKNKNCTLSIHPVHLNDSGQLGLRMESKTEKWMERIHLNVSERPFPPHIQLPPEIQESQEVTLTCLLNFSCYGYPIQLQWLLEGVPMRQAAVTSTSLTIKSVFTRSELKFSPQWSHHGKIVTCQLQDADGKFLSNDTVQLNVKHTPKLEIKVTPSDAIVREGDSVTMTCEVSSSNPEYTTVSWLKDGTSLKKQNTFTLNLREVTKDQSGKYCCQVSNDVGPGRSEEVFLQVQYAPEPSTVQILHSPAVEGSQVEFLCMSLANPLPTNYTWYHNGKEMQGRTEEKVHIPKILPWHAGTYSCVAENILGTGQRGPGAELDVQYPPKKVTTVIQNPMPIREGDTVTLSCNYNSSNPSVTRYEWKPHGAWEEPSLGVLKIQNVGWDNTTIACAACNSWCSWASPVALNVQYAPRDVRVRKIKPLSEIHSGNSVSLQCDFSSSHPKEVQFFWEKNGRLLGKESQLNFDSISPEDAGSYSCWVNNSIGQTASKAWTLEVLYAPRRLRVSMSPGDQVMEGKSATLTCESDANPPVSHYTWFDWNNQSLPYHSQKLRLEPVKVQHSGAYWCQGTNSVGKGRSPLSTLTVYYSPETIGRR

T3: CD22 Protein (His Tag), Sino Biological Cat. No. 11958-H08H (UniProt P20273 20-687)
T3 construct: soluble analyte, 50 nM in BLI; also called Sino Biological antigen
T3 sequence (looked up): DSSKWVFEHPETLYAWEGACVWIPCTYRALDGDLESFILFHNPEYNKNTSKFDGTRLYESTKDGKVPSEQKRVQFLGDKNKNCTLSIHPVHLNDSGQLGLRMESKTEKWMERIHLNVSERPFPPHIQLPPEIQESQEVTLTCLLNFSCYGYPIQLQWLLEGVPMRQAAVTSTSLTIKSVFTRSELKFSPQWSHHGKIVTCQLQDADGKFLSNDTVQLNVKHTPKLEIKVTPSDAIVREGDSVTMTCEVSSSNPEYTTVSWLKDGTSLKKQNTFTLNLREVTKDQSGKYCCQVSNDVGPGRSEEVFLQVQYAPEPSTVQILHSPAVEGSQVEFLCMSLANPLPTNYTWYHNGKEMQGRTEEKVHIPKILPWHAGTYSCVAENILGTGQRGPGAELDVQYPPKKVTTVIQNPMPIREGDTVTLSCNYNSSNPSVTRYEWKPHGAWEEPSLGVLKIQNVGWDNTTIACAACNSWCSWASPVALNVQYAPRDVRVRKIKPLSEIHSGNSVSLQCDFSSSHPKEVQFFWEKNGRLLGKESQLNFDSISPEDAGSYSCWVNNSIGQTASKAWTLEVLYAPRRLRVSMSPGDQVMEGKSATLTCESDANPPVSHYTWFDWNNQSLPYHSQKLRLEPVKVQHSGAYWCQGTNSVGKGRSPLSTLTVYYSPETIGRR


What was measured:
[1] = biological target: T1, cell surface CD22 on Ramos (CD22+) cells; experiment: flow cytometry, antibody titration on Ramos (CD22+) cells, AF488 anti-human IgG
Description: 100,000 cells per well were resuspended in 900 μL FC buffer in a 96 well deep well plate. Pinatuzumab, Inotuzumab, and pH engineered antibody variants were serially diluted at a 1:3 dilution. 100 μL of diluted antibody was added to each well with final concentration ranging from ˜100 nM to 0.024 pM and incubated for 2 hours at 4° C. Post incubation, the cells were spun at 2000 rpm for 2 min and supernatant was discarded. Cells were washed twice with 500 μL of ice-cold FC buffer and resuspended with 100 μL of FC buffer. The cells were then transferred from the deep well plate to 96 well round bottom plate, spun at 2000 rpm for 2 min and incubated with 100 μL of 10 μg/mL Alexa Fluor 488 conjugated goat anti-human IgG secondary antibody (ThermoFisher Scientific, A11013) for 30 min. Post incubation, cells were washed with FC buffer and resuspended in 100 μL of FC buffer to read on a BD Accuri C6 flow cytometer. Binding affinity was measured as a dissociation constant KD by GraphPad Prism assuming Michaelis-Menten binding kinetics. MYT1331, MYT4405 and MYT4424 show high affinity binding to cell surface CD22 on Ramos cells in the pM-nM range confirming that variants created through pH engineering can retain functionally appropriate affinities as compared to their corresponding starting ABPCs (e.g., inotuzumab or pinatuzumab).

[2] = biological target: T2, CD22 (Acro Biosystems, Cat #CD2-H52H8); experiment: BLI, IgG on anti-human Fc sensor, 50 nM CD22
[3] = biological target: T3, CD22 Protein (His Tag), Sino Biological …; experiment: BLI, IgG on anti-human Fc sensor, 50 nM CD22
[4] = biological target: T3, CD22 Protein (His Tag), Sino Biological …; experiment: BLI, IgG on anti-human Fc sensor

Row | IC50 [1] [nM] | binding result [4] | Binder | other results
1 | 0.362 |  | pinatuzumab (antibody, V domains shown, IgG from Expi293; also called MYT1293; PINATUZUMAB starting ABPC) VH: EVQLVESGGGLVQPGGSLRLSCAASGYEFSRSWMNWVRQAPGKGLEWVGRIYPGDGDTNYSGKFKGRFTISADTSKNTAYLQMNSLRAEDTAVYYCARDGSSWDWYFDVWGQGTLVTVSS VL: DIQMTQSPSSLSASVGDRVTITCRSSQSIVHSVGNTFLEWYQQKPGKAPKLLIYKVSNRFSGVPSRFSGSGSGTDFTLTISSLQPEDFATYYCFQGSQFPYTFGQGTKVEIK | 
2 | 0.395 |  | MYT1331 (antibody, V domains shown, pinatuzumab VH F107H; tie by order) VH: EVQLVESGGGLVQPGGSLRLSCAASGYEFSRSWMNWVRQAPGKGLEWVGRIYPGDGDTNYSGKFKGRFTISADTSKNTAYLQMNSLRAEDTAVYYCARDGSSWDWYHDVWGQGTLVTVSS VL: DIQMTQSPSSLSASVGDRVTITCRSSQSIVHSVGNTFLEWYQQKPGKAPKLLIYKVSNRFSGVPSRFSGSGSGTDFTLTISSLQPEDFATYYCFQGSQFPYTFGQGTKVEIK | 
3 | 0.24 |  | MYT4405 (antibody, V domains shown, inotuzumab VH N31H+N103H; tie by order) VH: EVQLVQSGAEVKKPGASVKVSCKASGYRFTHYWIHWVRQAPGQGLEWIGGINPGNNYATYRRKFQGRVTMTADTSTSTVYMELSSLRSEDTAVYYCTREGYGHYGAWFAYWGQGTLVTVSS VL: DVQVTQSPSSLSASVGDRVTITCRSSQSLANSYGNTFLSWYLHKPGKAPQLLIYGISNRFSGVPDRFSGSGSGTDFTLTISSLQPEDFATYYCLQGTHQPYTFGQGTKVEIK | 
4 |  |  | MYT0550 (antibody, V domains shown, inotuzumab VH N103H; tie by order) VH: EVQLVQSGAEVKKPGASVKVSCKASGYRFTNYWIHWVRQAPGQGLEWIGGINPGNNYATYRRKFQGRVTMTADTSTSTVYMELSSLRSEDTAVYYCTREGYGHYGAWFAYWGQGTLVTVSS VL: DVQVTQSPSSLSASVGDRVTITCRSSQSLANSYGNTFLSWYLHKPGKAPQLLIYGISNRFSGVPDRFSGSGSGTDFTLTISSLQPEDFATYYCLQGTHQPYTFGQGTKVEIK | binding result [2]: binds; binding result [3]: binds
5 |  |  | MYT0520 (antibody, V domains shown, inotuzumab VH Y27H; tie by order) VH: EVQLVQSGAEVKKPGASVKVSCKASGHRFTNYWIHWVRQAPGQGLEWIGGINPGNNYATYRRKFQGRVTMTADTSTSTVYMELSSLRSEDTAVYYCTREGYGNYGAWFAYWGQGTLVTVSS VL: DVQVTQSPSSLSASVGDRVTITCRSSQSLANSYGNTFLSWYLHKPGKAPQLLIYGISNRFSGVPDRFSGSGSGTDFTLTISSLQPEDFATYYCLQGTHQPYTFGQGTKVEIK | binding result [2]: binds; binding result [3]: binds
6 | 0.075 |  | inotuzumab (antibody, V domains shown, IgG from Expi293, captured by anti-human Fc; entries headed heavy/light chain hold only the variable domains; also called MYT0518; INOTUZUMAB starting ABPC) VH: EVQLVQSGAEVKKPGASVKVSCKASGYRFTNYWIHWVRQAPGQGLEWIGGINPGNNYATYRRKFQGRVTMTADTSTSTVYMELSSLRSEDTAVYYCTREGYGNYGAWFAYWGQGTLVTVSS VL: DVQVTQSPSSLSASVGDRVTITCRSSQSLANSYGNTFLSWYLHKPGKAPQLLIYGISNRFSGVPDRFSGSGSGTDFTLTISSLQPEDFATYYCLQGTHQPYTFGQGTKVEIK | 
7 |  |  | MYT0536 (antibody, V domains shown, inotuzumab VH Y57H; tie by order) VH: EVQLVQSGAEVKKPGASVKVSCKASGYRFTNYWIHWVRQAPGQGLEWIGGINPGNNHATYRRKFQGRVTMTADTSTSTVYMELSSLRSEDTAVYYCTREGYGNYGAWFAYWGQGTLVTVSS VL: DVQVTQSPSSLSASVGDRVTITCRSSQSLANSYGNTFLSWYLHKPGKAPQLLIYGISNRFSGVPDRFSGSGSGTDFTLTISSLQPEDFATYYCLQGTHQPYTFGQGTKVEIK | binding result [2]: binds; binding result [3]: binds
8 | 0.115 |  | MYT4424 (antibody, V domains shown, inotuzumab VH N31H+T59H+N103H; tie by order) VH: EVQLVQSGAEVKKPGASVKVSCKASGYRFTHYWIHWVRQAPGQGLEWIGGINPGNNYAHYRRKFQGRVTMTADTSTSTVYMELSSLRSEDTAVYYCTREGYGHYGAWFAYWGQGTLVTVSS VL: DVQVTQSPSSLSASVGDRVTITCRSSQSLANSYGNTFLSWYLHKPGKAPQLLIYGISNRFSGVPDRFSGSGSGTDFTLTISSLQPEDFATYYCLQGTHQPYTFGQGTKVEIK | 
9 |  |  | MYT0544 (antibody, V domains shown, inotuzumab VH T97H; tie by order) VH: EVQLVQSGAEVKKPGASVKVSCKASGYRFTNYWIHWVRQAPGQGLEWIGGINPGNNYATYRRKFQGRVTMTADTSTSTVYMELSSLRSEDTAVYYCHREGYGNYGAWFAYWGQGTLVTVSS VL: DVQVTQSPSSLSASVGDRVTITCRSSQSLANSYGNTFLSWYLHKPGKAPQLLIYGISNRFSGVPDRFSGSGSGTDFTLTISSLQPEDFATYYCLQGTHQPYTFGQGTKVEIK | binding result [2]: binds; binding result [3]: binds
10 |  | no binding (tested: 50 nM) | MYT4651 (antibody, V domains shown, 12C5 VH M106H; tie by order) VH: QVQLVQSGSELKKPGASVKVSCKASGYTFTSYAMNWVRQAPGQGLEWMGWINTNTGNPTYAQGFTGRFVFSLDTSVSTAYLQISSLKAEDTAVYYCARLFYYYFGHDVWGQGTTVTVSS VL: QSALTQPASVSGSPGQSITISCTGTSSDVGSYNLVSWYQLHPGKAPKLMIYEVSKRPSGVSNRFSGSRSGNTASLTISGLQAEDEADYYCCSYANSSTLVFGGGTKLTVL | 
11 |  | no binding (tested: 50 nM) | MYT4715 (antibody, V domains shown, 19A3 VH A96H; tie by order) VH: QVQLQQWGAGLLKPSETLSLTCAVYGRSFSSYYWSWIRQPPGKGLEWIGDIQHSGSTNYNPSLKSRVTISVDTSKNQFSLKLSSVTAADTAVYYCHGTFYDILTGYYPLGYWGPGTLVTVSS VL: not shown | 
12 |  | no binding (tested: 50 nM) | MYT4718 (antibody, V domains shown, 19A3 VH F99H; tie by order) VH: QVQLQQWGAGLLKPSETLSLTCAVYGRSFSSYYWSWIRQPPGKGLEWIGDIQHSGSTNYNPSLKSRVTISVDTSKNQFSLKLSSVTAADTAVYYCAGTHYDILTGYYPLGYWGPGTLVTVSS VL: not shown | 
13 |  | no binding (tested: 50 nM) | MYT4723 (antibody, V domains shown, 19A3 VH T104H; tie by order) VH: QVQLQQWGAGLLKPSETLSLTCAVYGRSFSSYYWSWIRQPPGKGLEWIGDIQHSGSTNYNPSLKSRVTISVDTSKNQFSLKLSSVTAADTAVYYCAGTFYDILHGYYPLGYWGPGTLVTVSS VL: not shown | 
14 |  | no binding (tested: 50 nM) | MYT4720 (antibody, V domains shown, 19A3 VH D101H; tie by order) VH: QVQLQQWGAGLLKPSETLSLTCAVYGRSFSSYYWSWIRQPPGKGLEWIGDIQHSGSTNYNPSLKSRVTISVDTSKNQFSLKLSSVTAADTAVYYCAGTFYHILTGYYPLGYWGPGTLVTVSS VL: not shown | 

Reference: patent US20220288219A1 (MYTHIC THERAPEUTICS, published 2022)
